In IntAct's records for PubMed 18086875:

Key:
[1] = biological target: fak2_human PTK2B (UniProt Q14289)
[2] = biological target: pak1_human PAK1 (UniProt Q13153)
[3] = biological target: fak1_human PTK2 (UniProt Q05397)
[4] = biological target: fak2_human PTK2B (UniProt Q14289); remark: listed apart in the source

Sequence of fak2_human PTK2B (Q14289 whole entry, looked up): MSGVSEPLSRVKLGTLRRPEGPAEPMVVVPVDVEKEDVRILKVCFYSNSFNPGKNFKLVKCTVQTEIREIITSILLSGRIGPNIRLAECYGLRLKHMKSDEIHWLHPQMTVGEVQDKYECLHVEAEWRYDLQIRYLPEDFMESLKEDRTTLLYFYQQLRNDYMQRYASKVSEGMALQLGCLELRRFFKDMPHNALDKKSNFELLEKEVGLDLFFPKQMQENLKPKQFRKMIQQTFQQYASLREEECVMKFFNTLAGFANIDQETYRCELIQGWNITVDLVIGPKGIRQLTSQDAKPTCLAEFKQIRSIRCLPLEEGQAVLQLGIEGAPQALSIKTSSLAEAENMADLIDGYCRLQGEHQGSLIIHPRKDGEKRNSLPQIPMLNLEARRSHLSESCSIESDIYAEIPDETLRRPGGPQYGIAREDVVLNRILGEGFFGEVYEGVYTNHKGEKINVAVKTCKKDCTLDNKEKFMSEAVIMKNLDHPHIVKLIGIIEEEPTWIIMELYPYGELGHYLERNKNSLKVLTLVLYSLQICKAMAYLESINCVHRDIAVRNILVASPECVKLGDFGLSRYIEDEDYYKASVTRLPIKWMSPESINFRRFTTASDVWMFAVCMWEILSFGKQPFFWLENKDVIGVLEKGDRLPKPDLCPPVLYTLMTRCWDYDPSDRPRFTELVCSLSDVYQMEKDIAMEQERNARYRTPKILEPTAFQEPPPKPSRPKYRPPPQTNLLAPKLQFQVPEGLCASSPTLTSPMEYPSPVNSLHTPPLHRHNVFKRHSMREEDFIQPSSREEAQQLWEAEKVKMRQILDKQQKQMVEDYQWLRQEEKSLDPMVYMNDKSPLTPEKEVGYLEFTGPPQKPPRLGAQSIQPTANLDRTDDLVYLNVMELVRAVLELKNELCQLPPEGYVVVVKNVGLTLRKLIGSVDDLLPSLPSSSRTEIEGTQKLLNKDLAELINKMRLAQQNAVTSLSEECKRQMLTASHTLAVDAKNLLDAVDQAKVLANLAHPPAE
Sequence of Rho-related GTP-binding protein RhoU (Homo sapiens), Q7L0Q8 F86C (Q7L0Q8 whole entry F86C): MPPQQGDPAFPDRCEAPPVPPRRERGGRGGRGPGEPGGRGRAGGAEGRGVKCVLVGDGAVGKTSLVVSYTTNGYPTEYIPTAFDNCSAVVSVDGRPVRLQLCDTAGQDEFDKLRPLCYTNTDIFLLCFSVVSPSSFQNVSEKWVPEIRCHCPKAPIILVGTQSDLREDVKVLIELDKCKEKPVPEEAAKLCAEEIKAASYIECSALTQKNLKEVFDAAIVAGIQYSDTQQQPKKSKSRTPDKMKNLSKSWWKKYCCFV
Sequence of pak1_human PAK1 (Q13153 whole entry): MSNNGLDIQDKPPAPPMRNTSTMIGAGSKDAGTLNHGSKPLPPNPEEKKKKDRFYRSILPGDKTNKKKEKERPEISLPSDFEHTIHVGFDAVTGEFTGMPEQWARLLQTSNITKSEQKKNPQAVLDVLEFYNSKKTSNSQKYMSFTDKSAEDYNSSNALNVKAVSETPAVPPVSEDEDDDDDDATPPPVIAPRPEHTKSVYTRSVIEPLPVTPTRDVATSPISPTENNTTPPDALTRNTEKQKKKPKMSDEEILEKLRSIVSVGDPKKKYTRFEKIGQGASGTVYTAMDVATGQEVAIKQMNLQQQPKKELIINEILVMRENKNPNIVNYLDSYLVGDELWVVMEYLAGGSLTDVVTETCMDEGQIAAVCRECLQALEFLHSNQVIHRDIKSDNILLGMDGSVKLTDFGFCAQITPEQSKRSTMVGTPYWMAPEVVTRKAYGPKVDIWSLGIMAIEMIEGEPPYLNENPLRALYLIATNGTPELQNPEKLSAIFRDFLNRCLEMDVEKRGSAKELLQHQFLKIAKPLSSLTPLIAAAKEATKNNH
Sequence of fak1_human PTK2 (Q05397 whole entry, looked up): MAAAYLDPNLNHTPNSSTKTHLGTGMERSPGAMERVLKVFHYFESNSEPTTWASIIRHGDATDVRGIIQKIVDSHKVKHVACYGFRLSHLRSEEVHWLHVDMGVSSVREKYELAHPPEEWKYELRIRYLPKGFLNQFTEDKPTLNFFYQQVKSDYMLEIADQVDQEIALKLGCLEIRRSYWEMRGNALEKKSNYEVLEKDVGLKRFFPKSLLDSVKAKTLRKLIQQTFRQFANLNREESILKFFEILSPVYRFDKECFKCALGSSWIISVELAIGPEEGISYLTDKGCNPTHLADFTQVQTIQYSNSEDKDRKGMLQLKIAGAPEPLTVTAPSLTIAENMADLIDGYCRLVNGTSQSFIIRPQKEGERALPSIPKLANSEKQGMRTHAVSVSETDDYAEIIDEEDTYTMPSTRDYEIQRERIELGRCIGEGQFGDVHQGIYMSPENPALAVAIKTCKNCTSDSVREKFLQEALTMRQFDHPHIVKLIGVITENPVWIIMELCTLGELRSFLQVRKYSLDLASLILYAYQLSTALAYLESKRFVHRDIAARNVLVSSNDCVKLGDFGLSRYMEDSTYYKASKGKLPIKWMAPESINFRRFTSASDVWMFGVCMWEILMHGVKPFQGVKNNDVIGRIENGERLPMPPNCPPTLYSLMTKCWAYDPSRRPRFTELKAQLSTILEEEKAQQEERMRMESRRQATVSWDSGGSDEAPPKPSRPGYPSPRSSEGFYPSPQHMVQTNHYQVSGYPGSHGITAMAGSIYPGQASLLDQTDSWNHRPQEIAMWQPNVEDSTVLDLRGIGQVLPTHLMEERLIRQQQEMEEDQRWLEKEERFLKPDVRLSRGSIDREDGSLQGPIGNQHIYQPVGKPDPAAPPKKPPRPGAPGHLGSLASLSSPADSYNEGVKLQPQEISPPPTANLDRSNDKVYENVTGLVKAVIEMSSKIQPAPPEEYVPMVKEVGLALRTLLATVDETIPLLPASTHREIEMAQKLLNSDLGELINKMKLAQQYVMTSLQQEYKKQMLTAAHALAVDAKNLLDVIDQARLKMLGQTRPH

effect of a mutation on the interaction [1] | effect of a mutation on the interaction [2] | effect of a mutation on the interaction [3] | effect of a mutation on the interaction [4] | Substance
disrupting interaction |  |  |  | Rho-related GTP-binding protein RhoU (Homo sapiens), Q7L0Q8 F83G
disrupting interaction | decreasing interaction |  |  | Rho-related GTP-binding protein RhoU (Homo sapiens), Q7L0Q8 F86C
disrupting interaction | decreasing interaction |  |  | Rho-related GTP-binding protein RhoU (Homo sapiens), Q7L0Q8 P80G
 |  | decreasing interaction |  | Rho-related GTP-binding protein RhoU (Homo sapiens), Q7L0Q8 Q107L
 |  | decreasing interaction | disrupting interaction | Rho-related GTP-binding protein RhoU (Homo sapiens), Q7L0Q8 T63N
